Assays:
Settings in all cases: tags: endogenous on A431 cells (ATCC CRL-1555)
[1] = target: T1, EGFR (epidermal growth factor receptor) (Homo sapiens, UniProt P00533 P00533:25-1210); assay: flow
Experimental: (§1) A secondary phycoerythrin labelled anti-human IgG antibody was used to detect binding of alpha-galactosyl IgG antibody to the compound.
(§2) A431 cells (ATCC CRL-1555) were harvested and resuspended at 5×10⁶ cells/mL in phosphate buffered saline (PBS) (Sigma D8662)+0.1% BSA (Bovine Serum Albumin-Sigma A2153)+0.1 mg/mL Yeast t-RNA (Invitrogen 15401-011)+5 mM MgCl₂ (Sigma M1028) and incubated on ice for 30 minutes to block. 5×10⁵ cells were then incubated with compound at various concentrations as described below or buffer alone at room temperature, shaking at 450 rpm for 1 hour. The cells were washed with 3×200 μL PBS+0.1% BSA, prior to adding 50 μL of Anti-alpha galactosyl IgG antibody (custom purification from human IVIG, Rockland Immunochemicals, Inc.) at 45 μg/mL in PBS+0.1% BSA and incubating at 4° C. for 1 hour. […] After a final wash of 3×200 μL PBS+0.1% BSA the cells were resuspended in 200 μL PBS+0.1% BSA and evaluated on a flow cytometer (FC500 Beckman Coulter). Data from all samples were analysed in the Kaluza software package (Beckman Coulter).
(§3) The fold shift over background was calculated by dividing the Mean Fluorescence Intensity (MFI) obtained in the presence of 10 nM or 1 μM alphamer by the Mean Fluorescence Intensity (MFI) obtained in the absence of alphamer. […]

[2] = target: T1, EGFR (epidermal growth factor receptor); assay: flow; at 1 uM (4.2 at 10 nM); same conditions
Experimental: as §1, §2, §3

[3] = target: T1, EGFR (epidermal growth factor receptor); assay: flow; at 1 uM (2.5 at 10 nM); same conditions
Experimental: as §1, §2, §3

[4] = target: T1, EGFR (epidermal growth factor receptor); assay: flow; at 1 uM (6.5 at 10 nM); same conditions
Experimental: as §1, §2, §3

[5] = target: T1, EGFR (epidermal growth factor receptor); assay: flow; at 1 uM (6.4 at 10 nM); same conditions
Experimental: as §1, §2, §3

[6] = target: T1, EGFR (epidermal growth factor receptor); assay: flow; at 1 uM (5.9 at 10 nM); same conditions
Experimental: as §1, §2, §3

[7] = target: T1, EGFR (epidermal growth factor receptor); assay: flow; at 1 uM (5.8 at 10 nM); same conditions
Experimental: as §1, §2, §3

[8] = target: T1, EGFR (epidermal growth factor receptor); assay: flow; at 1 uM (5.5 at 10 nM); same conditions
Experimental: as §1, §2, §3

[9] = target: T1, EGFR (epidermal growth factor receptor); assay: flow; at 1 uM (7.0 at 10 nM); same conditions
Experimental: as §1, §2, §3

[10] = target: T1, EGFR (epidermal growth factor receptor); assay: flow; at 1 uM (7.1 at 10 nM); same conditions
Experimental: as §1, §2, §3

[11] = target: T1, EGFR (epidermal growth factor receptor); assay: flow; at 1 uM (3.8 at 10 nM); same conditions
Experimental: as §1, §2, §3

[12] = target: T1, EGFR (epidermal growth factor receptor); assay: flow; at 1 uM (5.7 at 10 nM); same conditions
Experimental: as §1, §2, §3

B1: RNA aptamer conjugate 4 (Example 26) (ssRNA)
RNA: GGGAUUUAAUCGCCGUAGAAAAGCAUGUCAAAGCCGGAACCC
modifications: as N22 but 5' alpha-Gal moiety from Preparation 90
For B1, the binding signal [1] was 3.3 fold MFI over background.

B2: RNA aptamer conjugate 6 (Example 28) (ssRNA)
RNA: B1 RNA
modifications: as N22 but 5' alpha-Gal moiety from Preparation 86
B2 showed a binding signal [2] of 8.1 fold MFI over background.

B3: RNA aptamer conjugate 5 (Example 27) (ssRNA)
RNA: B1 RNA
modifications: as N22 but 5' alpha-Gal moiety from Preparation 85
Work on B3 yielded a binding signal [3] of 4.1 fold MFI over background.

B4: RNA aptamer conjugate 12 (Example 34) (ssRNA)
RNA: B1 RNA
modifications: as N22 but 5' alpha-Gal moiety from Preparation 91
B4 gave a binding signal [2] of 7.6 fold MFI over background.

B5: RNA aptamer conjugate 17 (Example 39) (ssRNA)
RNA: B1 RNA
modifications: as N22 but 5' alpha-Gal moiety from Preparation 92
In the case of B5, the binding signal [4] is reported as 10.4 fold MFI over background.

B6: RNA aptamer conjugate 15 (Example 37) (ssRNA)
RNA: B1 RNA
modifications: as N22 but 5' alpha-Gal moiety from Preparation 97
In the case of B6, the binding signal [5] is reported as 12.2 fold MFI over background.

B7: RNA aptamer conjugate 11 (Example 33) (ssRNA)
RNA: B1 RNA
modifications: as N22 but 5' alpha-Gal moiety from Preparation 88
For B7, the binding signal [6] was 11 fold MFI over background.

B8: RNA aptamer conjugate 9 (Example 31) (ssRNA)
RNA: B1 RNA
modifications: as N22 but 5' alpha-Gal moiety from Preparation 87
With B8 the binding signal [7] was 12.5 fold MFI over background.

B9: RNA aptamer conjugate 8 (Example 30) (ssRNA)
RNA: B1 RNA
modifications: as N22 but 5' alpha-Gal moiety from Preparation 83
Binder B9 has a binding signal [8] of 10.5 fold MFI over background.

B10: RNA aptamer conjugate 16 (Example 38) (ssRNA)
RNA: B1 RNA
modifications: as N22 but 5' alpha-Gal moiety from Preparation 98
B10 showed a binding signal [9] of 13.6 fold MFI over background.

B11: RNA aptamer conjugate 13 (Example 35) (ssRNA)
RNA: B1 RNA
modifications: as N22 but 5' alpha-Gal moiety from Preparation 96
B11 was tested, and the binding signal [5] was 12.3 fold MFI over background.

B12: RNA aptamer conjugate 14 (Example 36) (ssRNA)
RNA: B1 RNA
modifications: as N22 but 5' alpha-Gal moiety from Preparation 95
B12 showed a binding signal [10] of 12.4 fold MFI over background.

B13: RNA aptamer conjugate 7 (Example 29) (ssRNA)
RNA: B1 RNA
modifications: as N22 but 5' alpha-Gal moiety from Preparation 84
With B13 the binding signal [11] was 8.2 fold MFI over background.

B14: RNA aptamer conjugate 10 (Example 32) (ssRNA)
RNA: B1 RNA
modifications: as N22 but 5' alpha-Gal moiety from Preparation 89
Binder B14 has a binding signal [12] of 10.4 fold MFI over background.

Reference: patent US20210369850, “COMPOUNDS AND […] USES […]” (CENTAURI THERAPEUTICS LIMITED, published 2021)
